Results as given in patent US20170065702A1 (CANGENE, published 2017).
Where a chain is given by its changes, count along the chain named.

B1: CAN54G2 (antibody, V domains shown)
VH: QVQLQQSGTELVRPGTSVKISCKASGYDFTNFWLGWIKQRPGHGLEWIGDIYPGGDNTYYNEKFKGKVTLTADKSSNTAYMQFSSLTSEDSAVYFCFMILYTLDYWGQGTSVTVSS
VL: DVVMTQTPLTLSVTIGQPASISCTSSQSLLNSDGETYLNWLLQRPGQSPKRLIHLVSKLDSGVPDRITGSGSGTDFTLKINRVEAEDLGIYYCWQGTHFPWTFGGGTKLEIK
B2: CAN30G1 (antibody, V domains shown)
VH: QIQLVQSGPELKKPGETVKISCKASGYTFTNYGMNWVKQAPGKGLKWMGWINTYTGKPTYVDDFKGRFAFSLETSANTAYLQINNLKNEDTATYFCESGGYDEDYWGQGTTLTVSS
VL: ENVLTQSPAIMSASPGEKVTMTCSASSSVTYMHWYQQKSSTSPKLWIYDTSKLASGVPGRFSGSGSGNSYSLTISSMEAEDVATYYCFQGSGYPYTFGGGTKLEIK
B3: CAN40G1 (antibody, V domains shown)
VH: EVQLQQSGPELVKPGASVKISCRTSGYTFTEYTIHWVKQSRGKSLEWIGGINPNHGGTLYNQKFKVKATLTVDKSSSTAYMELRSLTSEDSAVYYCARFTYDYWGQGTTLTVSS
VL: DIVLTQSPASLAVSLGQRASISCKASQSVDHDGDSYMNWYQQKPGQPPKLLIYATSNLESGIPARFSGSGSGTDFTLNIHPVEEEDAATYYCQQSYEVPLTFGAGTKLELK
B4: CAN30G5 (antibody, V domains shown)
VH: EVQLVESGGGLVQPKGSLKLSCAASGFAFNSYAMHWVCQAPGKGLEWVARIRIKSGNYATSYAGSVTDRFTVSRDDSQNLFYLQMNNLKTEDTAMYYCVREWEGAMDYWGQGTSVTVSS
VL: DIVLTQSPLSLPVSLGDQASISCRSSQSLVHSNGNTYLHWYLQKPGQSPNLLIYKVSNRFSGVPDRFSGSGSGTDFTLKISRVEAEDLGVYFCSQSTHVPWTFGGGTKLEIK
B5: CAN30G3 (antibody, V domains shown)
VH: QVQLKESGPGLVAPSQSLSITCTVSGFSLTDYGITWIRQPPGKGLEWLGVIWGGGSAYYNLVLKSRLSISKDNSKSQVFLKMNSLQTDDTAMYYCAKHRTLITTAMDYWGQGISVTVSS
VL: DVLMTQTPLSLPVSLGDQASISCRSSQNIVHSNGNTYLEWYLQKSGQSPKLLIYKVSNRFSGVPDRFSGSGSGTDFTLKISRVEAEDLGVYYCFQGSHFPWTFGGGTKLEIK
B6: CAN30G4 (antibody, V domains shown)
VH: EVKLVESGGGLVKSGGSLKLSCAVSGFTFSTYAMSWVRQIPEKRLEWVATISNGGSYIYYSDSVKGRFTISRDNAKNTLYLQMSSLRSEDTAMYYCARHRESYRYDWFAYWGQGTLVTVSA
VL: B5 VL with N33D, S45P, V56F, F99V, W101P, G105A, I111L

What was measured:
MARV Angola GPe[change] = MARV Angola GPe[change] (Marburg virus, Angola strain, UniProt Q1PD50 19-636); assay: cross reactivity with GPeΔmuc, summary table
MARV Musoke GPe[change] = MARV Musoke GPe[change] (Marburg virus, Musoke strain, UniProt P35253 19-636); assay: cross reactivity with GPeΔmuc, summary table

Binder | binding result (MARV Angola GPe[change]) | binding result (MARV Musoke GPe[change])
B1 | binds | binds
B2 | binds | binds
B3 | binds | binds
B4 | binds | binds
B5 | binds | binds
B6 | binds | binds
